Laboratory results: patent US20120058499

Biological target: NEDD8-amino-luciferin, Q15843
Sequence (Q15843 whole entry, looked up): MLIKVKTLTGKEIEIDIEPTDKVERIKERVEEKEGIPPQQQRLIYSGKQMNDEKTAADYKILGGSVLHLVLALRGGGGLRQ

B1: DEN1 (NEDD8-specific protease 1) (protein)
chain: MDPVVLSYMDSLLRQSDVSLLDPPSWLNDHIIGFAFEYFANSQFHDCSDHVSFISPEVTQFIKCTSNPAEIAMFLEPLDLPNKRVVFLAINDNSNQAAGGTHWSLLVYLQDKNSFFHYDSHSRSNSVHAKQVAEKLEAFLGRKGDKLAFVEEKAPAQQNSYDCGMYVICNTEALCQNFFRQQTESLLQLLTPAYITKKRGEWKDLITTLAKK
luminescence (RLUs), 250 nM substrate: A significant increase in signal was observed with the NEDD8-amino-luciferin substrate at a Den1 concentration at least 3-orders of magnitude lower than required for the Z-RLRGG (SEQ ID NO: 1)-amino-luciferin substrate
